The nature of this data set: Particle size of raw materials and micelles by dynamic light scattering (DLS, ZETASIZER NANO-S). Type of data set: physicochemical. To be noted: for particle size: DLS after overnight incubation at 37° C., measured at 25° C.; for Particle diameter peak by number / Particle diameter peak by scattering intensity / Zeta Average (average particle diameter): Table 1, raw materials and products in PBS, measured 5 times at 25° C. The method, then: After vortex, the solution was stood at 37° C. for overnight incubation to bind GFP and the silole dendrimer, and subsequently to form the micelles. The incubation time for this experiment was about 16 to 18 hours. The properties of the micelle particles in the solution were measured by using dynamic light scattering method (DLS; Dynamic light scattering).
Also, the particle size in the reaction mixture was measured at 25° C. by using ZETASIZER NANO-S(manufactured by Malvern Instrument Ltd.) with a laser beam wavelength of 532 nm.
It was measured whether the micelles including each drug are formed in the sample to which each model drug is added; and if the micelles including the drug are formed, their particle size were measured by using the dynamic light scattering method. Here, DiI, Oil orange SS, and goat anti mouse IgG-Alexa 610 were used as drug models.
The particle properties of the target peptide sequence-binding micelle were measured by a dynamic light scattering method as the same as used in the example 1 (see FIG. 11). […] As a result, the particles having the particle size of about 100 nm to 200 nm were confirmed as the same as those in the example 1.

In the case of “20 μM GFP only: green fluorescent protein, SEQ ID NO: 1, cysteine at position 251, cysteine 60 replaced with serine”, the particle size entry is recorded as “about 4 nm”, the “Particle diameter peak by number” value came out at 4.682 nm, the “Particle diameter peak by scattering intensity” value was determined as 838.8 nm and the “Zeta Average (average particle diameter)” value is reported as 860.7 nm.

As for `C[Si](C)(CCC[Si](CCCBr)(CCCBr)CCCBr)CCC[Si](CCCBr)(CCCBr)CCCBr` [50 μM Silole only], the particle size entry is “about 650 nm”, the “Particle diameter peak by number” value amounted to 649.3 nm, the “Particle diameter peak by scattering intensity” value came to 664.6 nm and the “Zeta Average (average particle diameter)” value is 894.5 nm.
